Patent US20160185837A1, “GIP AND GLP-1 RECEPTOR DUAL-AGONISTS FOR THE TREATMENT OF DIABETES” (Medimmune Limited, priority 2013, published 2016)
Numbering of substitutions follows the chain as printed. Where “and” joins values, the source holds several entries; their conditions need not be identical. Identical values can stand only once.

T1: human GIP receptor (human) (UniProt P48546)
T1 sequence (looked up): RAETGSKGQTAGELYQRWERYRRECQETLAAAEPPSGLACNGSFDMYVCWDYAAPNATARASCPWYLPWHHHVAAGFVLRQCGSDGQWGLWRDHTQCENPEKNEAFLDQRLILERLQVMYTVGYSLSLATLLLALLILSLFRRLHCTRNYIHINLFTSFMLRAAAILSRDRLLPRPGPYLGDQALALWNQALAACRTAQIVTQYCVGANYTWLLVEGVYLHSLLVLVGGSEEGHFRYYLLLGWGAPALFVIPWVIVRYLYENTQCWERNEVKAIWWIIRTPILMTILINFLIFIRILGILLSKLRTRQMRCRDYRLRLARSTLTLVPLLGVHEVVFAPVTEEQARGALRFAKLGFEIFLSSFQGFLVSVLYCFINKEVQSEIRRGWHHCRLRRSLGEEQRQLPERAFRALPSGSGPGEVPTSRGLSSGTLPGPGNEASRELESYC

T2: mouse GIP receptor (mouse) (UniProt Q0P543)
T2 sequence (looked up): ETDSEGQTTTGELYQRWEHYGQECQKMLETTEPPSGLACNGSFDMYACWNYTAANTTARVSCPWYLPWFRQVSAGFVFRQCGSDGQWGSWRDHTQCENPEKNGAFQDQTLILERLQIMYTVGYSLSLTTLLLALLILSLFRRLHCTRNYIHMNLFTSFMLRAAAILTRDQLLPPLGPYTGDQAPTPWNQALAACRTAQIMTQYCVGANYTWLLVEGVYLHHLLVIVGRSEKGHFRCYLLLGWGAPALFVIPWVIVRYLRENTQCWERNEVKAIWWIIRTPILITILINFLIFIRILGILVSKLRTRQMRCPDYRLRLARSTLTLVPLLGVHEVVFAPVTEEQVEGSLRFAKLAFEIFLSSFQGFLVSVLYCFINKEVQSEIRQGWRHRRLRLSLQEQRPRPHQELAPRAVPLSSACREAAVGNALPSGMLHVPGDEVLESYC

T3: rat GIP receptor (rat) (UniProt P43219)
T3 sequence (looked up): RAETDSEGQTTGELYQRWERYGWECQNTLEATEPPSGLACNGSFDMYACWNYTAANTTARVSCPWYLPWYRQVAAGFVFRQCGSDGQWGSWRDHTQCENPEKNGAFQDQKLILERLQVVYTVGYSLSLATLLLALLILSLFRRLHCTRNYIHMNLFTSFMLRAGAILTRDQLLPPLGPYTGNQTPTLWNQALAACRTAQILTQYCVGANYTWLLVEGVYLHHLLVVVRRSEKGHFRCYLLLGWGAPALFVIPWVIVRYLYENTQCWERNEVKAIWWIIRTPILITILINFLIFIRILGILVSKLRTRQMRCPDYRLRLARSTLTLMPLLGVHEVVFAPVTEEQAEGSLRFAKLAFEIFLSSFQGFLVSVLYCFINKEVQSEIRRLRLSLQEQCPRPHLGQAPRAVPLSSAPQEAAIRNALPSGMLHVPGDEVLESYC

B1: IP330 (Fc fusion)
chain: YSEGTFTSDYSKLLERQAIDEFIALLLKGGGGGGGSGGGGSGGGGSGGGGSGGGGSGGGGSA
B2: IP352 (Fc fusion)
chain: B1 chain with L25M, G30E
B3: IP346 (Fc fusion)
chain: B1 chain with L25F
B4: IP347 (Fc fusion)
chain: B1 chain with L25I
B5: IP348 (Fc fusion)
chain: B1 chain with L25S
B6: IP369 (Fc fusion)
chain: B1 chain with L25H
B7: IP350 (Fc fusion)
chain: B1 chain with L25G
B8: IP349 (Fc fusion)
chain: B1 chain with L25N
B9: IP331 (Fc fusion)
chain: B1 chain with L25D
B10: IP343 (Fc fusion)
chain: YSEGTFTSDYAAAAERQAIDAFAAWLAAAAGGGGGSGGGGSGGGGSGGGGSA
B11: IP368 (Fc fusion)
chain: YSEGTFTSDYRQAIDRQAIDEFIAWLLKGGGGGGGSGGGGSGGGGSGGGGSACPPC
B12: IP385 (Fc fusion)
chain: B11 chain with R11S, Q12I, A13Y, I14L
B13: IP364 (Fc fusion)
chain: YSEGTFTSDFSKLLERQAIDEFIAWLLKGGAAAGGSGSTASSGSGSATGGGGAATHTCPPC
B14: IP366 (Fc fusion)
chain: B13 chain with F10Y, S11R, K12M, L14K
B15: IP373 (Fc fusion)
chain: B13 chain with F6H
B16: IP375 (Fc fusion)
chain: B13 chain with F6H, D9L
B17: IP367 (Fc fusion)
chain: B13 chain with F10Y, S11R, K12I, L14K
B18: IP226 (Fc fusion)
chain: YSEGTFTSDVSKLLERQAIDEFIAWLLKGGAAAGGSGSTASSGSGSATGGGGAATHTCPPCPAPEF
B19: IP250 (Fc fusion)
chain: B18 chain with K12I, L13A, L14M, E15D
B20: IP223 (Fc fusion)
chain: B18 chain with K12S, L13Y, L14M, R16E, Q17E
B21: IP018 (Fc fusion)
chain: YSEGTFISDYSIAMDKIHQQDFVNWLLAQKAAAGGSGSTASSGSGSATGGGGAATHTCPPCPAPEF
B22: IP413 (Fc fusion)
chain: YSEGTFTSDYSKLLEEEASRLFIEWLLAGGGGGGSGGGGSGGGGSGGGGSATHTCPPC

These binders were tested against T1, human GIP receptor (human) (assay: cell-based or functional assay).

Row | cAMP EC50 | cAMP EC50, hGIPr (C3) line | cAMP EC50, Batch 1 | cAMP EC50, Batch 2 | cAMP EC50, Batch 3 | Binder
1 | 0.009 nM | – | – | – | – | B1
2 | 0.0069 nM | – | – | – | – | B2
3 | 0.011 nM | 0.16 nM | – | – | – | B3
4 | 0.013 nM | – | – | – | – | B4
5 | 0.011 nM | – | – | – | – | B5
6 | 0.0089 nM | – | – | – | – | B6
7 | 0.013 nM | – | – | – | – | B7
8 | 0.0079 nM | – | – | – | – | B8
9 | 0.013 nM | – | – | – | – | B9
10 | 72 nM | – | – | – | – | B10
11 | 0.2 nM | – | – | – | – | B11
12 | 0.012 nM | – | – | – | – | B12
13 | 0.0085 nM | – | – | – | – | B13
14 | 0.14 nM | – | – | – | – | B14
15 | 0.0054 nM | – | – | – | – | B15
16 | 0.078 nM | – | – | – | – | B16
17 | 0.057 nM | 13 nM | – | – | – | B17
18 | 0.025 nM | – | – | – | – | B18
19 | 0.11 nM | – | – | – | – | B19
20 | 2.5 nM | – | – | – | – | B20
21 | – | 0.8 nM | 0.0026 nM | 0.0051 nM and 0.0093 nM | 0.0064 nM | B21

These binders were tested against human GLP-1 receptor (human) (UniProt P43220) (assay: cell-based or functional assay).
human GLP-1 receptor (human), sequence (P43220 24-463): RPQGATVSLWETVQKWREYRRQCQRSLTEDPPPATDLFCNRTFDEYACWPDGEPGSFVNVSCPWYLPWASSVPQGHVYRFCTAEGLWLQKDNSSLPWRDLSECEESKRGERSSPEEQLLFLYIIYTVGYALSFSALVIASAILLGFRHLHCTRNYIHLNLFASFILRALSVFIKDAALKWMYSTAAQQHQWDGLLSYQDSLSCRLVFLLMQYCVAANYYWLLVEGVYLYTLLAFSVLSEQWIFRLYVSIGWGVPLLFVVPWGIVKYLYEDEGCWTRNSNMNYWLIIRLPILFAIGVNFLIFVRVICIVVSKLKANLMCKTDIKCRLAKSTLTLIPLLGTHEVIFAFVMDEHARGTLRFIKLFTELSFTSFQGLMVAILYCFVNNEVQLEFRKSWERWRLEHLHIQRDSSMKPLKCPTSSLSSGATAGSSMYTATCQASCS

Row | cAMP EC50 | cAMP EC50, Batch 2 | cAMP EC50, Batch 3 | Binder
22 | 0.66 nM | – | – | B1
23 | 0.13 nM | – | – | B2
24 | 0.08 nM | – | – | B3
25 | 0.75 nM | – | – | B4
26 | 0.29 nM | – | – | B5
27 | 0.071 nM | – | – | B6
28 | 0.86 nM | – | – | B7
29 | 0.16 nM | – | – | B8
30 | 2.6 nM | – | – | B9
31 | 0.19 nM | – | – | B22
32 | 960 nM | – | – | B10
33 | 230 nM | – | – | B11
34 | 0.47 nM | – | – | B12
35 | 0.18 nM | – | – | B13
36 | 6.1 nM | – | – | B14
37 | 0.72 nM | – | – | B15
38 | 4 nM | – | – | B16
39 | 4.4 nM | – | – | B17
40 | 0.2 nM | – | – | B18
41 | 1.1 nM | – | – | B19
42 | 16 nM | – | – | B20
43 | > 317 nM | 4200 nM | > 6350 nM | B21

The binders below were run against human glucagon receptor (human) (UniProt P47871) (assay: cell-based or functional assay).
human glucagon receptor (human), sequence (P47871 26-477): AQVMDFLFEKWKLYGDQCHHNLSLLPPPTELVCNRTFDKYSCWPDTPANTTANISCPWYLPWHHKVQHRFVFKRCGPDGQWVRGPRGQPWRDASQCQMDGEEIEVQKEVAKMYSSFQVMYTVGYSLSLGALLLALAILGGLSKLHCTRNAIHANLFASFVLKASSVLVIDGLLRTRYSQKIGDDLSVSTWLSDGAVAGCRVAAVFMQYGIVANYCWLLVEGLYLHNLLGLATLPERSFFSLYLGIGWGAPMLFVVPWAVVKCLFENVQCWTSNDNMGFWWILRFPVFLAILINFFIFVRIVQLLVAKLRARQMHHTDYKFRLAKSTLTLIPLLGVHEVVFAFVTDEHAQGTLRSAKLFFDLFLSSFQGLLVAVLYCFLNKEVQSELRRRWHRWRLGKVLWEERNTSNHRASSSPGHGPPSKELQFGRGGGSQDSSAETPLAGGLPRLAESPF

Row | cAMP EC50 | cAMP EC50, Batch 2 | cAMP EC50, Batch 3 | Binder
44 | 1100 nM | – | – | B1
45 | 620 nM | – | – | B2
46 | 180 nM | – | – | B3
47 | > 1490 nM | – | – | B4
48 | > 907 nM | – | – | B5
49 | 710 nM | – | – | B6
50 | > 1360 nM | – | – | B7
51 | 1200 nM | – | – | B8
52 | > 1950 nM | – | – | B9
53 | 7.6 nM | – | – | B22
54 | > 2070 nM | – | – | B10
55 | > 4860 nM | – | – | B11
56 | > 1560 nM | – | – | B12
57 | 610 nM | – | – | B13
58 | > 10200 nM | – | – | B14
59 | > 6790 nM | – | – | B15
60 | > 11700 nM | – | – | B16
61 | > 1300 nM | – | – | B17
62 | > 317 nM | 480 nM | 720 nM | B21

The binders below were run against T2, mouse GIP receptor (mouse) (assay: cell-based or functional assay).

Row | cAMP EC50 | cAMP EC50, Batch 1 | Binder
63 | 0.45 nM | – | B1
64 | 0.52 nM | – | B2
65 | 0.16 nM | – | B3
66 | 0.85 nM | – | B4
67 | 1.4 nM | – | B5
68 | 0.68 nM | – | B6
69 | 1.3 nM | – | B7
70 | 0.55 nM | – | B8
71 | 4 nM | – | B9
72 | 3.7 nM | – | B22
73 | 880 nM | – | B10
74 | 1.3 nM | – | B11
75 | 18 nM | – | B12
76 | 0.5 nM | – | B13
77 | 0.056 nM | – | B14
78 | 3.2 nM | – | B15
79 | 0.65 nM | – | B16
80 | 0.031 nM | – | B17
81 | 7.5 nM | – | B18
82 | 35 nM | – | B19
83 | – | 0.022 nM | B21

The binders below were run against mouse GLP-1 receptor (mouse) (UniProt O35659) (assay: cell-based or functional assay).
mouse GLP-1 receptor (mouse), sequence (O35659 22-463): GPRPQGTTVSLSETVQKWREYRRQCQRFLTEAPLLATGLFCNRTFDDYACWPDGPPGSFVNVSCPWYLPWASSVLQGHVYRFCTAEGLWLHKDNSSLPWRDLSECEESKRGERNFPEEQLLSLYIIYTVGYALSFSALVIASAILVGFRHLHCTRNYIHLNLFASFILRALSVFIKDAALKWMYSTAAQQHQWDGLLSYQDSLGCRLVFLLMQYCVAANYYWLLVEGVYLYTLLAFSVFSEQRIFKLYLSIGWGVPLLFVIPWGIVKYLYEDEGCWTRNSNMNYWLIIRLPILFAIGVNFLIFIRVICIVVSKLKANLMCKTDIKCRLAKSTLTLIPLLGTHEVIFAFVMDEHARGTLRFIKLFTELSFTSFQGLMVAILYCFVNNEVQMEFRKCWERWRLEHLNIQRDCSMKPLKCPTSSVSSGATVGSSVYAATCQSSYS

Row | cAMP EC50 | Binder
84 | 5.5 nM | B1
85 | 3.6 nM | B2
86 | 0.29 nM | B3
87 | 2.5 nM | B4
88 | 0.89 nM | B5
89 | 0.27 nM | B6
90 | 2.7 nM | B7
91 | 0.86 nM | B8
92 | 22 nM | B9
93 | 8.9 nM | B22
94 | > 2070 nM | B10
95 | > 4860 nM | B11
96 | 30 nM | B12
97 | 0.69 nM | B13
98 | 100 nM | B14
99 | 9.2 nM | B15
100 | 49 nM | B16
101 | 390 nM | B17
102 | 1 nM | B18
103 | 22 nM | B19
104 | 80 nM | B20

These binders were tested against T3, rat GIP receptor (rat) (assay: cell-based or functional assay).

Row | cAMP EC50 | cAMP EC50, Batch 1 | Binder
105 | 0.023 nM | – | B1
106 | 0.0089 nM | – | B2
107 | 0.01 nM | – | B3
108 | 0.024 nM | – | B4
109 | 0.024 nM | – | B5
110 | 0.02 nM | – | B6
111 | 0.024 nM | – | B7
112 | 0.014 nM | – | B8
113 | 0.06 nM | – | B9
114 | > 113 nM | – | B22
115 | 110 nM | – | B10
116 | 0.22 nM | – | B11
117 | 1.1 nM | – | B12
118 | 0.02 nM | – | B13
119 | 0.016 nM | – | B14
120 | 0.035 nM | – | B15
121 | 0.07 nM | – | B16
122 | 0.0099 nM | – | B17
123 | 0.27 nM | – | B18
124 | 5.3 nM | – | B19
125 | 72 nM | – | B20
126 | – | 0.0076 nM | B21

Each binder was assayed against rat GLP-1 receptor (rat) (UniProt P32301) (assay: cell-based or functional assay).
rat GLP-1 receptor (rat), sequence (P32301 22-463): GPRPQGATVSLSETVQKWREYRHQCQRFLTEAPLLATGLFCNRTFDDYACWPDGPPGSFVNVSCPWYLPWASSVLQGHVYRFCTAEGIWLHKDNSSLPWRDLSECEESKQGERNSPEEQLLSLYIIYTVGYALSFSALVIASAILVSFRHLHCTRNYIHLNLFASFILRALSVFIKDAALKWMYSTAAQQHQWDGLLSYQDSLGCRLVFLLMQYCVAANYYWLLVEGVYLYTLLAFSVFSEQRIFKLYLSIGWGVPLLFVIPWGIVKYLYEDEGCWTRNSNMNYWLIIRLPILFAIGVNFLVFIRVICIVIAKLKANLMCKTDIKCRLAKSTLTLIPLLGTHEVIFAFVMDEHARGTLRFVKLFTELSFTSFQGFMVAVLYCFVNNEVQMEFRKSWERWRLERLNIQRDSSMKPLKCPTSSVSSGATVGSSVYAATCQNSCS

Row | cAMP EC50 | Binder
127 | 0.089 nM | B1
128 | 0.0076 nM | B2
129 | 0.017 nM | B3
130 | 0.087 nM | B4
131 | 0.037 nM | B5
132 | 0.023 nM | B6
133 | 0.21 nM | B7
134 | 0.059 nM | B8
135 | 0.31 nM | B9
136 | 0.048 nM | B22
137 | 360 nM | B10
138 | 370 nM | B11
139 | 0.16 nM | B12
140 | 0.058 nM | B13
141 | 14 nM | B14
142 | 0.9 nM | B15
143 | 3.9 nM | B16
144 | 8 nM | B17
145 | 0.061 nM | B18
146 | 2.2 nM | B19
147 | 18 nM | B20
